In publication PMC3458870 (PLoS ONE, 2012):

Molecular target: the molecule itself
Assay: SEC

B1: truncated form of human PAH including the catalytic domain, hPAH(Gly103-Gln428) (domain or fragment)
chain: GATVHELSRDKKKDTVPWFPRTIQELDRFANQILSYGAELDADHPGFKDPVYRARRKQFADIAYNYRHGQPIPRVEYMEEEKKTWGTVFKTLKSLYKTHACYEYNHIFPLLEKYCGFHEDNIPQLEDVSQFLQTCTGFRLRPVAGLLSSRDFLGGLAFRVFHCTQYIRHGSKPMYTPEPDICHELLGHVPLFSDRSFAQFSQEIGLASLGAPDEYIEKLATIYWFTVEFGLCKQGDSIKAYGAGLLSSFGELQYCLSEKPKLLPLELEKTAIQNYTVTEFQPLYYVAESFNDAKEKVRNFAATIPRPFSVRYDPYTQRIEVLDNTQ
stoichiometry N: 2
